One may read the Kd as the equilibrium constant for the complex coming apart. As a reminder, the koff is the first-order rate constant of dissociation. By kon is commonly meant the second-order rate constant of association.

Assay [1] concerns the target T1, cynomolgus monkey BCMA (cynomolgus monkey, UniProt A0A2K5UD97 1-53).
T1 construct: Soluble analyte in SPR; construct not described; also called cyBCMA; Cyno BCMA
Put plainly: SPR, IgG immobilised, 37 C. An outline of the steps: (§1)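 Rate constants come from a 1:1 Langmuir model including mass transport, fitted to double-referenced sensorgrams. Analyte was human or cynomolgus BCMA in five rising concentrations up to 50 nM over amine-coupled IgG; runs were at 25° C or 37° C.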
(In general: Surface plasmon resonance follows binding to a sensor surface in real time, without labels.)

Assay [2] concerns the target T2, Human BCMA (human, UniProt Q02223 1-54, limits assumed).
T2 construct: Soluble analyte in SPR; construct not described; also called huBCMA; B-cell maturation antigen
T2 sequence (looked up): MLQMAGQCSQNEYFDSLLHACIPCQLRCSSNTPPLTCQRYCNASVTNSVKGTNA
The assay is described as follows: SPR, IgG immobilised, 37 C. An outline of the steps:
as §1

T1 sequence (A0A2K5UD97 entry or part of it): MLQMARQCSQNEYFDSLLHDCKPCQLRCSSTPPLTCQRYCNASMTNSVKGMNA

B1: L3.PY/L1.AH/H3.YA (antibody, V domains shown)
VH: EVQLLESGGGLVQPGGSLRLSCAASGFTFGSYAMTWVRQAPGKGLEWVSAISGSGGNTFYADSVKGRFTISRDNSKNTLYLQMNSLRAEDTAVYYCARVSPIYAGMDYWGQGTLVTVSS
VL: EIVLTQSPGTLSLSPGERATLSCRASQSVSAHYLAWYQQKPGQAPRLLIYGASSRATGIPDRFSGSGSGTDFTLTISRLEPEDFAVYYCQHYPYPPSFTFGQGTKVEIK
notes: IgG
On to B1, for which, in assay [1], the affinity, expressed as Kd, was 2.22 nM; the “T ½” value amounted to 2.2 min; the dissociation rate constant (koff) amounted to 0.00526 s⁻¹; the kon worked out at 2.37e+06 M⁻¹ s⁻¹. Besides, in assay [2], the equilibrium dissociation constant (Kd) was determined as 0.5 nM, the “T ½” value is 7.73 min, the koff worked out at 0.0015 s⁻¹ and the kon stood at 3e+06 M⁻¹ s⁻¹.

B2: L3.PY/L1.PS/H2.DY (antibody, V domains shown)
VH: EVQLLESGGGLVQPGGSLRLSCAASGFTFGSYAMTWVRQAPGKGLEWVSAIDYSGGNTFYADSVKGRFTISRDNSKNTLYLQMNSLRAEDTAVYYCARVSPIASGMDYWGQGTLVTVSS
VL: EIVLTQSPGTLSLSPGERATLSCRASQSVSSSYPSWYQQKPGQAPRLLIYGASSRATGIPDRFSGSGSGTDFTLTISRLEPEDFAVYYCQHYPYPPSFTFGQGTKVEIK
notes: IgG
As to B2, in assay [1], the dissociation constant (Kd) amounted to 1.99 nM, the “T ½” value turned out to be 3.06 min, the koff was 0.00378 s⁻¹ and the kon worked out at 1.9e+06 M⁻¹ s⁻¹. Also, in assay [2], the Kd was determined as 1.12 nM, the “T ½” value came out at 3.2 min, the koff amounted to 0.00361 s⁻¹ and the association rate constant (kon) stood at 3.22e+06 M⁻¹ s⁻¹.

B3: L3.PY/L1.PS/H2.YQ (antibody, V domains shown)
VH: EVQLLESGGGLVQPGGSLRLSCAASGFTFGSYAMTWVRQAPGKGLEWVSAISYQGGNTFYADSVKGRFTISRDNSKNTLYLQMNSLRAEDTAVYYCARVSPIASGMDYWGQGTLVTVSS
VL: EIVLTQSPGTLSLSPGERATLSCRASQSVSSSYPSWYQQKPGQAPRLLIYGASSRATGIPDRFSGSGSGTDFTLTISRLEPEDFAVYYCQHYPYPPSFTFGQGTKVEIK
notes: IgG
In the case of B3, in assay [1], the dissociation constant Kd is 1.87 nM, the “T ½” value amounted to 3.09 min, the koff was 0.00374 s⁻¹ and the kon turned out to be 2e+06 M⁻¹ s⁻¹. For the same molecule, in assay [2], binding was characterised by a dissociation constant (Kd) of 1.28 nM, the “T ½” value amounted to 2.69 min, the koff turned out to be 0.0043 s⁻¹ and the association rate constant (kon) worked out at 3.35e+06 M⁻¹ s⁻¹.

B4: L3.PY/L1.PS/H2.LT (antibody, V domains shown)
VH: EVQLLESGGGLVQPGGSLRLSCAASGFTFGSYAMTWVRQAPGKGLEWVSAISLTGGNTFYADSVKGRFTISRDNSKNTLYLQMNSLRAEDTAVYYCARVSPIASGMDYWGQGTLVTVSS
VL: EIVLTQSPGTLSLSPGERATLSCRASQSVSSSYPSWYQQKPGQAPRLLIYGASSRATGIPDRFSGSGSGTDFTLTISRLEPEDFAVYYCQHYPYPPSFTFGQGTKVEIK
notes: IgG
On to B4, for which, in assay [1], the affinity, expressed as Kd, was 1.89 nM; the “T ½” value turned out to be 2.81 min; the koff was determined as 0.00411 s⁻¹; the on-rate constant (kon) was 2.17e+06 M⁻¹ s⁻¹. Besides, in assay [2], binding was characterised by a dissociation constant (Kd) of 1.37 nM, the “T ½” value was determined as 2.49 min, the koff came to 0.00465 s⁻¹ and the kon is 3.4e+06 M⁻¹ s⁻¹.

B5: L3.PY/L1.PH/P6E01 (antibody, V domains shown)
VH: EVQLLESGGGLVQPGGSLRLSCAASGFTFGSYAMTWVRQAPGKGLEWVSAISGSGGNTFYADSVKGRFTISRDNSKNTLYLQMNSLRAEDTAVYYCARVSPIASGMDYWGQGTLVTVSS
VL: EIVLTQSPGTLSLSPGERATLSCRASQSVSPHYLAWYQQKPGQAPRLLIYGASSRATGIPDRFSGSGSGTDFTLTISRLEPEDFAVYYCQHYPYPPSFTFGQGTKVEIK
notes: IgG
For B5, in assay [1], the dissociation constant (Kd) is 3.63 nM, the “T ½” value came out at 1.46 min, the dissociation rate constant (koff) is 0.00789 s⁻¹ and the kon is 2.17e+06 M⁻¹ s⁻¹. In assay [2], binding was characterised by a dissociation constant (Kd) of 0.32 nM, the “T ½” value came out at 12.7 min, the off-rate constant (koff) came to 0.000913 s⁻¹ and the kon was 2.81e+06 M⁻¹ s⁻¹.

B6: L3.PY/L1.AH/P6E01 (antibody, V domains shown)
VH: EVQLLESGGGLVQPGGSLRLSCAASGFTFGSYAMTWVRQAPGKGLEWVSAISGSGGNTFYADSVKGRFTISRDNSKNTLYLQMNSLRAEDTAVYYCARVSPIASGMDYWGQGTLVTVSS
VL: EIVLTQSPGTLSLSPGERATLSCRASQSVSAHYLAWYQQKPGQAPRLLIYGASSRATGIPDRFSGSGSGTDFTLTISRLEPEDFAVYYCQHYPYPPSFTFGQGTKVEIK
notes: IgG
As to B6, in assay [1], the equilibrium dissociation constant (Kd) was 2.65 nM, the “T ½” value amounted to 2.02 min, the off-rate constant (koff) worked out at 0.00572 s⁻¹ and the kon is 2.16e+06 M⁻¹ s⁻¹. Further, in assay [2], binding was put at a Kd of 0.49 nM, the “T ½” value amounted to 9.19 min, the off-rate (koff) was 0.00126 s⁻¹ and the kon is 2.55e+06 M⁻¹ s⁻¹.

B7: L3.PY/L1.PS/H3.AE (antibody, V domains shown)
VH: EVQLLESGGGLVQPGGSLRLSCAASGFTFGSYAMTWVRQAPGKGLEWVSAISGSGGNTFYADSVKGRFTISRDNSKNTLYLQMNSLRAEDTAVYYCARVSPIAAEMDYWGQGTLVTVSS
VL: EIVLTQSPGTLSLSPGERATLSCRASQSVSSSYPSWYQQKPGQAPRLLIYGASSRATGIPDRFSGSGSGTDFTLTISRLEPEDFAVYYCQHYPYPPSFTFGQGTKVEIK
notes: IgG
Regarding B7, in assay [1], the Kd was determined as 1.68 nM, the “T ½” value stood at 2.8 min, the off-rate (koff) was found to be 0.00413 s⁻¹ and the kon came out at 2.46e+06 M⁻¹ s⁻¹. Further, in assay [2], the Kd came out at 0.46 nM, the “T ½” value is 7.93 min, the koff is 0.00146 s⁻¹ and the kon is 3.14e+06 M⁻¹ s⁻¹.

B8: L3.PY/L1.PS/H3.YA (antibody, V domains shown)
VH: EVQLLESGGGLVQPGGSLRLSCAASGFTFGSYAMTWVRQAPGKGLEWVSAISGSGGNTFYADSVKGRFTISRDNSKNTLYLQMNSLRAEDTAVYYCARVSPIYAGMDYWGQGTLVTVSS
VL: EIVLTQSPGTLSLSPGERATLSCRASQSVSSSYPSWYQQKPGQAPRLLIYGASSRATGIPDRFSGSGSGTDFTLTISRLEPEDFAVYYCQHYPYPPSFTFGQGTKVEIK
notes: IgG
Turning to B8, in assay [1], the affinity, expressed as Kd, was 5.65 nM; the “T ½” value was determined as 1.16 min; the koff was 0.00998 s⁻¹; the kon amounted to 1.77e+06 M⁻¹ s⁻¹. In addition, in assay [2], the affinity, expressed as Kd, was 2.95 nM; the “T ½” value worked out at 1.28 min; the koff amounted to 0.00905 s⁻¹; the kon was 3.07e+06 M⁻¹ s⁻¹.

B9: L3.PY/L1.PS/H3.TAQ (antibody, V domains shown)
VH: EVQLLESGGGLVQPGGSLRLSCAASGFTFGSYAMTWVRQAPGKGLEWVSAISGSGGNTFYADSVKGRFTISRDNSKNTLYLQMNSLRAEDTAVYYCTRVSPIAAQMDYWGQGTLVTVSS
VL: EIVLTQSPGTLSLSPGERATLSCRASQSVSSSYPSWYQQKPGQAPRLLIYGASSRATGIPDRFSGSGSGTDFTLTISRLEPEDFAVYYCQHYPYPPSFTFGQGTKVEIK
notes: IgG
Take B9: in assay [1], the affinity, expressed as Kd, was 2.14 nM; the “T ½” value was found to be 2.09 min; the koff came out at 0.00552 s⁻¹; the association rate constant (kon) came to 2.58e+06 M⁻¹ s⁻¹. In addition, in assay [2], binding was characterised by a dissociation constant (Kd) of 0.76 nM, the “T ½” value is 4.7 min, the dissociation rate constant (koff) is 0.00246 s⁻¹ and the kon was found to be 3.25e+06 M⁻¹ s⁻¹.

B10: L3.PY/L1.PS/H3.AQ (antibody, V domains shown)
VH: EVQLLESGGGLVQPGGSLRLSCAASGFTFGSYAMTWVRQAPGKGLEWVSAISGSGGNTFYADSVKGRFTISRDNSKNTLYLQMNSLRAEDTAVYYCARVSPIAAQMDYWGQGTLVTVSS
VL: EIVLTQSPGTLSLSPGERATLSCRASQSVSSSYPSWYQQKPGQAPRLLIYGASSRATGIPDRFSGSGSGTDFTLTISRLEPEDFAVYYCQHYPYPPSFTFGQGTKVEIK
notes: IgG
In the case of B10, in assay [1], binding was characterised by a dissociation constant (Kd) of 1.72 nM, the “T ½” value amounted to 2.67 min, the koff amounted to 0.00433 s⁻¹ and the kon is 2.52e+06 M⁻¹ s⁻¹. In assay [2], binding was put at a Kd of 0.55 nM, the “T ½” value amounted to 6.46 min, the off-rate (koff) is 0.00179 s⁻¹ and the on-rate constant (kon) amounted to 3.26e+06 M⁻¹ s⁻¹.

B11: L3.PY/L1.PS/H2.QL (antibody, V domains shown)
VH: EVQLLESGGGLVQPGGSLRLSCAASGFTFGSYAMTWVRQAPGKGLEWVSAISGSGGNTFYADQLKGRFTISRDNSKNTLYLQMNSLRAEDTAVYYCARVSPIASGMDYWGQGTLVTVSS
VL: EIVLTQSPGTLSLSPGERATLSCRASQSVSSSYPSWYQQKPGQAPRLLIYGASSRATGIPDRFSGSGSGTDFTLTISRLEPEDFAVYYCQHYPYPPSFTFGQGTKVEIK
notes: IgG
Consider B11, for which, in assay [1], binding was characterised by a dissociation constant (Kd) of 0.97 nM, the “T ½” value amounted to 18.2 min, the koff came out at 0.000636 s⁻¹ and the association rate constant (kon) worked out at 657000 M⁻¹ s⁻¹. In assay [2], the affinity, expressed as Kd, was 20.6 nM; the “T ½” value was 0.04 min; the dissociation rate constant (koff) came to 0.314 s⁻¹; the kon came to 1.52e+07 M⁻¹ s⁻¹.

B12: L3.PY/L1.FF/P6E01 (antibody, V domains shown)
VH: EVQLLESGGGLVQPGGSLRLSCAASGFTFGSYAMTWVRQAPGKGLEWVSAISGSGGNTFYADSVKGRFTISRDNSKNTLYLQMNSLRAEDTAVYYCARVSPIASGMDYWGQGTLVTVSS
VL: EIVLTQSPGTLSLSPGERATLSCRASQSVSSFFLAWYQQKPGQAPRLLIYGASSRATGIPDRFSGSGSGTDFTLTISRLEPEDFAVYYCQHYPYPPSFTFGQGTKVEIK
notes: IgG
B12: in assay [1], the equilibrium dissociation constant (Kd) turned out to be 2.41 nM, the “T ½” value stood at 1.96 min, the off-rate (koff) stood at 0.00591 s⁻¹ and the on-rate constant (kon) was found to be 2.45e+06 M⁻¹ s⁻¹. For the same molecule, in assay [2], the Kd was 0.59 nM, the “T ½” value amounted to 8.18 min, the koff stood at 0.00141 s⁻¹ and the on-rate constant (kon) was 2.39e+06 M⁻¹ s⁻¹.

B13: L3.PY/L1.PS/H2.HA (antibody, V domains shown)
VH: EVQLLESGGGLVQPGGSLRLSCAASGFTFGSYAMTWVRQAPGKGLEWVSAISHAGGNTFYADSVKGRFTISRDNSKNTLYLQMNSLRAEDTAVYYCARVSPIASGMDYWGQGTLVTVSS
VL: EIVLTQSPGTLSLSPGERATLSCRASQSVSSSYPSWYQQKPGQAPRLLIYGASSRATGIPDRFSGSGSGTDFTLTISRLEPEDFAVYYCQHYPYPPSFTFGQGTKVEIK
notes: IgG
Take B13: in assay [1], binding was put at a Kd of 1.86 nM, the “T ½” value came to 4.3 min, the koff worked out at 0.00269 s⁻¹ and the kon amounted to 1.45e+06 M⁻¹ s⁻¹. Further, in assay [2], binding was put at a Kd of 3.21 nM, the “T ½” value came out at 1.09 min, the dissociation rate constant (koff) is 0.0106 s⁻¹ and the kon turned out to be 3.3e+06 M⁻¹ s⁻¹.

(Values after US20160297884A1 (Pfizer, published 2016).)
